In article PMC7005798 (2020):

Molecular target: C3b (human, UniProt P01024 23-667; P01024 749-1663)
Assay: SPR

Sequence of C3b (P01024 23-667, chain 1 of 2): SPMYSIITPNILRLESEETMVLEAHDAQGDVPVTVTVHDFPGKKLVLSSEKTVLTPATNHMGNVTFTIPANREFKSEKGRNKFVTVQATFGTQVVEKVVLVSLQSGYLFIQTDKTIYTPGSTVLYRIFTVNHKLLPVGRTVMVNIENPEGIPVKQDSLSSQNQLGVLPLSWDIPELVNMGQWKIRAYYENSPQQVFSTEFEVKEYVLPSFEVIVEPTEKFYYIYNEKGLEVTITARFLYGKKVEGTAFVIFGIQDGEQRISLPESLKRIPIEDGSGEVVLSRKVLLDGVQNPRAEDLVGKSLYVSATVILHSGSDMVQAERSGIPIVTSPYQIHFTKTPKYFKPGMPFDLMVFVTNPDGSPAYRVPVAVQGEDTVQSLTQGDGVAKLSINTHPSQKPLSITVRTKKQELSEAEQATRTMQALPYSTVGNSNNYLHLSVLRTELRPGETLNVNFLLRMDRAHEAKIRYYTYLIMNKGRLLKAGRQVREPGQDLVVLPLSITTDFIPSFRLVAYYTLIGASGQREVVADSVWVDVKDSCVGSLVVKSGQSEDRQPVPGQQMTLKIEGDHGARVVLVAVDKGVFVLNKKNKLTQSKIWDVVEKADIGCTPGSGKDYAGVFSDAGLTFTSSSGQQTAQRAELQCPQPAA
Sequence of C3b (P01024 749-1663, chain 2 of 2): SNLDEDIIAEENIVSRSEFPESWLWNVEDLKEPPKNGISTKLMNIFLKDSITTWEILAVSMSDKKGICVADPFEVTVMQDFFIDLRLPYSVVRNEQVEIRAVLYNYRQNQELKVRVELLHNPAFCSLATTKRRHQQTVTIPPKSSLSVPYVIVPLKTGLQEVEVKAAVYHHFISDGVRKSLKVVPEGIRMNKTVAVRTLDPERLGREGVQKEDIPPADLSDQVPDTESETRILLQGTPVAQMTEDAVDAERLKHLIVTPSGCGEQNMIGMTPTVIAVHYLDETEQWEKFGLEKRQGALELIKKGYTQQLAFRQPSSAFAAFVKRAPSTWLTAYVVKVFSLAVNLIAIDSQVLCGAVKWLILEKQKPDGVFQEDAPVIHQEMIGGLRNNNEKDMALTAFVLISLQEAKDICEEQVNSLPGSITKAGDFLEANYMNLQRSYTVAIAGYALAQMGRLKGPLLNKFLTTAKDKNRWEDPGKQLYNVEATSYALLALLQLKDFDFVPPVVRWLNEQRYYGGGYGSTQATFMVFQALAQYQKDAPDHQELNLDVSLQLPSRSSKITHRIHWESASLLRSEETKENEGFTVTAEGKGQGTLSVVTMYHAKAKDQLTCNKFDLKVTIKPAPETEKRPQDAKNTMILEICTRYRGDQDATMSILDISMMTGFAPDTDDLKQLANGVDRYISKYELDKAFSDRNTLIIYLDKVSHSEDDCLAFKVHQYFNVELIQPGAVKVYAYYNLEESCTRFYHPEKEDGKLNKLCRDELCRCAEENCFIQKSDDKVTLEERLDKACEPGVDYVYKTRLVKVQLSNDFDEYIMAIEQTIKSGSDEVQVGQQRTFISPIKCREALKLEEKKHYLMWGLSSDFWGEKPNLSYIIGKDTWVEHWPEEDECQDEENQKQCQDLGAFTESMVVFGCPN

Kd: 1.1 µM
B1: Recombinant Factor H-Related Protein 4 (FHR-4), FHR-4B variant (natural protein)
chain: EVKPCDFPEIQHGGLYYKSLRRLYFPAAAGQSYSYYCDQNFVTPSGSYWDYIHCTQDGWSPTVPCLRTCSKSDIEIENGFISESSSIYILNKEIQYKCKPGYATADGNSSGSITCLQNGWSAQPICIKFCDMPVFENSRAKSNGMRFKLHDTLDYECYDGYEISYGNTTGSIVCGEDGWSHFPTCYNSSEKCGPPPPISNGDTTSFLLKVYVPQSRVEYQCQSYYELQGSNYVTCSNGEWSEPPRCIHPCIITEENMNKNNIQLKGKSDIKYYAKTGDTIEFMCKLGYNANTSVLSFQAVCREGIVEYPRCE
